According to US20250066826A1, “ARTIFICIAL SYNTHESIS METHOD FOR MALONYL-COENZYME A (COA) AND USE THEREOF” (SHANGHAI JIAO TONG UNIVERSITY, priority 2023, published 2025):

How the values were obtained:
Format in all cases: biochemical
[1] = Transaminase activity test using pyruvic acid as a substrate (coupled with MCR-C, NADPH at 340 nm); details: 5 mM pyruvic acid, 5 mM β-alanine, 2.5 mM NADP+, 2.5 mM CoA, 1 M purified transaminase, 10 M MCR-C, pH 7.8, 37° C.
Source text: It can be seen that the BauA has the best effect (FIG. 4A).

[2] = Transaminase activity test using oxaloacetic acid as a substrate; details: 5 mM oxaloacetic acid, 5 mM β-alanine, 10 M purified transaminase, 10 M MCR-C, pH 7.8, 37° C.
[3] = Transaminase activity test using α-ketoglutaric acid as a substrate; details: 5 mM α-ketoglutaric acid, 5 mM β-alanine, 10 M purified transaminase, 10 M MCR-C, pH 7.8, 37° C.
[4] = Oxidoreductase activity test (coupled with BauA, increase at 340 nm); details: 1 M purified oxidoreductase, 37° C.; for activity of the target enzyme (in words): in-vitro reaction with 10 M BauA
Protocol: Oxidoreductase activity test: in-vitro reaction was carried out in a total reaction volume of 200 μL, containing 100 mM Tris buffer (pH 7.8), 2 mM MgCl2, 3 mM DTT, 5 mM pyruvic acid, 5 mM 3-alanine, 2.5 mM NADP^+, 2.5 mM CoA, 10 M BauA, and 1 M purified oxidoreductase, the reaction mixture was cultured at 37° C., and the increase in 340 nm was monitored.

B1: BauA: transaminase from Pseudomonas aeruginosa, amino acid sequence SEQ ID NO: 7 (protein)
chain: MNQPLNVAPPVSSELNLRAHWMPFSANRNFQKDPRIIVAAEGSWLTDDKGRKVYDSLSGLWTCGAGHSRKEIQEAVARQLGTLDYSPGFQYGHPLSFQLAEKIAGLLPGELNHVFFTGSGSECADTSIKMARAYWRLKGQPQKTKLIGRARGYHGVNVAGTSLGGIGGNRKMFGQLMDVDHLPHTLQPGMAFTRGMAQTGGVELANELLKLIELHDASNIAAVIVEPMSGSAGVLVPPVGYLQRLREICDQHNILLIFDEVITAFGRLGTYSGAEYFGVTPDLMNVAKQVTNGAVPMGAVIASSEIYDTFMNQALPEHAVEFSHGYTYSAHPVACAAGLAALDILARDNLVQQSAELAPHFEKGLHGLQGAKNVIDIRNCGLAGAIQIAPRDGDPTVRPFEAGMKLWQQGFYVRFGGDTLQFGPTFNARPEELDRLFDAVGEALNGIA
modifications: The sequence is synthetized.
With B1 the “activity of the transaminases” value [1] was 1.60 µmol/min/mg and the “activity of the transaminases” value [2] was 0.46 µmol/min/mg.

B2: PydD2: transaminase from Bacillus megaterium, SEQ ID NO: 10 (protein)
chain: MVQVSQNEKDLRAKDEQYVWHGMKPYSPDATMVATKAKGAWITDEQGNRYLDAMAGLWCVNTGYGRDELALAAYEQLKELAYFPLTQSHVPAIKLAEKLNEMLGDDYVIFFSNSGSEANETAFKIVRQYHQQKGEHSRYKFISRYRGYHGNSMGALAATGQAQRKYKYEPLAPGFIHVAPPDSYRGQDDYDAPKEQLQSVKDIDNVMTWELSETIAAVIMEPIITGGGILLPPQNYMKGVKETCEKHGALLIADEVICGFGRTGEAFGFMNYDVKPDIITMAKGITSAYLPLSATAVKKEIYEAFKDSDQYEYFRHVNTFGGSPAACALALKNLEIMERENLFDRSKQLGAYVLSELTPLIDSHPYVGDVRGKGLLIGIELVADKQTKEPLDVNLVNEVVAKCKSKGVIIGKNGATVAGYNNVLTLSPPLNIEESDIELLLATITYALDSIK
modifications: The sequence is synthetized.
With B2 the “activity of the transaminases” value [1] was 0.96 µmol/min/mg and the “activity of the transaminases” value [2] was 0.49 µmol/min/mg.

B3: AptA: transaminase from Acinetobacter pittii, SEQ ID NO: 8 (protein)
chain: MVMFDTDKFSDSEHTLDAVQPNNNMYINYQAHWMPFSANRNFAKDPRMIVGAKGSYLIDDSGREIYDSLSGLWTCGAGHTLPEIQQAVSAQLGQLDYSPAFQFGHPLSFKLADKIVQHMPEKLQHVFFTNSGSESADTAIKMARAYWRIKGKPSKTKLIGRARGYHGVNVAGTSLGGIGGNRKMFGQLMDVDHLPHTLQPNLTFTKGCAETGGVELANEMLKLIELHDASNIAAVIVEPISGSAGCIVPPTGYLQRLREICDQHDILLIFDEVITGFGRLGTWTGAEYFGVTPDILNFAKQVTNGAIPLGGVVASHEIYSAFMQQELPEHAIEFTHGYTYSAHPVACAAALAALEVLEKKNLLAQSAALAPSFEKMLHGLKGAPHVLDIRNCGLIGALQLAPRDGDATIRGFELGMKLWKEGFYVRFGGDTLQFGPMFNGTEADIDRLMNAVGDALYQVN
modifications: The sequence is synthetized.
In the case of B3, the “activity of the transaminases” value [1] is reported as 0.90 µmol/min/mg and the “activity of the transaminases” value [2] is reported as 0.42 µmol/min/mg.

B4: YhxA: transaminase from Bacillus cereus, SEQ ID NO: 11 (protein)
chain: MELMIVQVTEQTQSLKKTDEKYLWHAMRGAAPSPTNLIITKAEGAWVTDIDGNRYLDGMSGLWCVNVGYGRKELARAAFEQLEEMPYFPLTQSHVPAIKLAEKLNEWLDDEYVIFFSNSGSEANETAFKIARQYHQQKGDHGRYKFISRYRAYHGNSMGALAATGQAQRKYKYEPLGQGFLHVAPPDTYRNPEDVHTLASAEEIDRVMTWELSQTVAGVIMEPIITGGGILMPPDGYMEKVKEICEKHGALLICDEVICGFGRTGKPFGFMNYGVKPDIITMAKGITSAYLPLSATAVRREVYEAFVGSDDYDRFRHVNTFGGNPAACALALKNLEIMENEKLIERSKELGERLLYELEDVKEHPNVGDVRGKGLLLGIELVEDKQTKEPASIEKMNKVINACKEKGLIIGKNGDTVAGYNNILQLAPPLSITEEDFTFIVKTMKECLAQL
modifications: The sequence is synthetized.
In the case of B4, the “activity of the transaminases” value [1] is reported as 0.15 µmol/min/mg.

B5: CCNA_03245: transaminase from Caulobacter vibrioides, SEQ ID NO: 9 (protein)
chain: MLPMPDFGANDLDAFWMPFTPNRRFKRHPRMLSSASGMWYRTPESREVLDATSGLWCVNAGHDRPKIREAIQKQAAEMDYAPCFNMGHPLAFQFASRLAQITPKGLDRIFFTNSGSESVDTALKIALAYHRARGKGTKTRLIGRERGYHGVGFGGISVGGIPKNRMYFGSLLTGVDHLPHTHGLPGNTCAKGQPENGAHLADDLERIVALHDASNIAAVIVEPVAGSTGVLIPPKGYLERLRAICDKHDILLIFDEVITGFGRVGAPFAAERFGVTPDLICMAKGLTNAAVPCGAVAASGKIYDAMMDGADAPIELFHGYTYSAHPLACAAGLATLETYREDDLFARAAGLEGYWQDAMHSLADARHVVDVRNLGLVAGIELEPRPGAPTARAMEVFETCFDEGLLIRVTGDIIALSPPLILEKDHIDRMVETIRRVLGQVD
modifications: The sequence is synthetized.
With B5 the “activity of the transaminases” value [1] was 0.13 µmol/min/mg.

B6: pydD: transaminase from Ureibacillus massiliensis, SEQ ID NO: 71 (protein)
chain: MSDYLSIKEQDKQYVLHSWAKQGSFNPKVIAKAEGVCFWDDAGNRYFDMSSQLVYVNVGHQHPKVLKAFQEIGTYPLAGPSFATKPKSDLSQRIIELAPSNMAKVFYTSGGAEANDHAVKIARMVSGRYKIFSRYRSYHGATFGAGNLTGESRRFAAEPGLPGFVKFEVPYLYREVIDFDSEEAATAYYLGKLRNQILYEGSDTIAAIFIEPIPGSNGVLIPPKGYLEGVRALCDEFGILMICDEVMTGFGRTGKGFAVDHYDFKPDIMTFAKGVTSGYAPLGGVIISEDISRFFDENVLMTGLTYSGHTMCTQIGVANLEVYEEENIFENAEKMGILLKQRLEKLLTFPSIGEIRSIGLFAGVELVKDKATKEPIIQYGLDYGKDPVGLMNKFISMLSANGFYTYSHESTVIIAPPLIITEEQINEAMDIFESTLKQFEKEGLFPEETLSV
modifications: The sequence is synthetized.
For B6, the “activity of the transaminases” value [3] was 0.825 µmol/min/mg.

B7: Pyd4: transaminase from Saccharomyces kluyveri, SEQ ID NO: 72 (protein)
chain: MPSYSVAELYYPDEPTEPKISTSSYPGPKAKQELEKLSNVFDTRAAYLLADYYKSRGNYIVDQDGNVLLDVYAQISSIALGYNNPEILKVAKSDAMSVALANRPALACFPSNDYGQLLEDGLLKAAPQGQDKIWTALSGSDANETAFKACFMYQAAKKRNGRSFSTEELESVMDNQLPGTSEMVICSFEKGFHGRLFGSLSTTRSKPIHKLDIPAFNWPKAPFPDLKYPLEENKEANKAEESSCIEKFSQIVQEWQGKIAAVIIEPIQSEGGDNHASSDFFQKLREITIENGILMIVDEVQTGVGATGKMWAHEHWNLSNPPDLVTFSKKFQAAGFYYHDPKLQPDQPFRQFNTWCGDPSKALIAKVIYEEIVKHDLVTRTAEVGNYLFNRLEKLFEGKNYIQNLRGKGQGTYIAFDFGTSSERDSFLSRLRCNGANVAGCGDSAVRLRPSLTFEEKHADVLVSIFDKTLRQLYG
modifications: The sequence is synthetized.
In the case of B7, the “activity of the transaminases” value [3] is reported as 1.15 µmol/min/mg.

B8: MCR-C: oxidoreductase (malonyl-CoA reductase) from Chloroflexus aurantiacu, SEQ ID NO: 70 (protein)
chain: SATTGARSASVGWAESLIGLHLGKVALITGGSAGIGGQIGRLLALSGARVMLAARDRHKLEQMQAMIQSELAEVGYTDVEDRVHIAPGCDVSSEAQLADLVERTLSAFGTVDYLINNAGIAGVEEMVIDMPVEGWRHTLFANLISNYSLMRKLAPLMKKQGSGYILNVSSYFGGEKDAAIPYPNRADYAVSKAGQRAMAEVFARFLGPEIQINAIAPGPVEGDRLRGTGERPGLFARRARLILENKRLNELHAALIAAARTDERSMHELVELLLPNDVAALEQNPAAPTALRELARRFRSEGDPAASSSSALLNRSIAAKLLARLHNGGYVLPADIFANLPNPPDPFFTRAQIDREARKVRDGIMGMLYLQRMPTEFDVAMATVYYLADRVVSGETFHPSGGLRYERTPTGGELFGLPSPERLAELVGSTVYLIGEHLTEHLNLLARAYLERYGARQVVMIVETETGAETMRRLLHDHVEAGRLMTIVAGDQIEAAIDQAITRYGRPGPVVCTPFRPLPTVPLVGRKDSDWSTVLSEAEFAELCEHQLTHHFRVARWIALSDGARLALVTPETTATSTTEQFALANFIKTTLHAFTATIGVESERTAQRILINQVDLTRRARAEEPRDPHERQQELERFIEAVLLVTAPLPPEADTRYAGRIHRGRAITV
modifications: The sequence is synthetized.
In the case of B8, the oxidoreductase activity ([4]; 5 mM pyruvic acid, 5 mM alanine, 2.5 mM NADP+, 2.5 mM CoA, 10 M BauA) is reported as 2.0 µmol/min/mg and the “activity of the target enzyme (in words)” value [4] is reported as “exhibit the activity of the target enzyme”.

B9: Msed_0709: oxidoreductase from Metallosphaera sedula, SEQ ID NO: 13 (protein)
chain: MRRTLKAAILGATGLVGIEYVRMLADHPYIKPTYLAGKGSVGKPYGEIVRWQTVGNVPKEVANQEVKPTDPKLMDDVDIIFSPLPQGAAGPVEEQFAKLGFNVISNSPDHRFDMDVPMIIPEVNPHTVTLIDEQRKRRDWKGFIVTTPLCTAQGAAIPLTPIYQNFKMSGVMITTMQSLSGAGYPGIASLDIVDNALPLGDGYDAKTVKEITRILSEVKRNVQEPGVNEITLDATTHRIATIHGHYEVAYVTFKEDTDVRKVMESMESFKGEPQDLKLPTAPEKPIIVTTQDARPQVFFDRWAGNPPGMSVVVGRLKQVNPRTIRFVSLIHNTVRGAAGGGVLTAELLVEKGYIDKR
modifications: The sequence is synthetized.
In the case of B9, the “activity of the target enzyme (in words)” value [4] is reported as “exhibit the activity of the target enzyme”.
